# Source: US20150203575A1
# How the values were obtained:
# [1] = target: FceRII expressed on cells (human) (UniProt P06734); test: flow cytometry, transfected 293T cells, 2 µg/ml
# [2] = target: FceRII expressed on cells (human) (UniProt P06734); test: flow cytometry, transfected 293T cells, 50 µg/ml
# [3] = target: human NPDC1 expressed on cells (human) (UniProt Q9NQX5); test: flow cytometry, transfected 293 cells, 2nd Ab anti-mouse IgG2a FITC; untransfected 293: 0
# [4] = target: human CD99 expressed on 293T cells (human) (UniProt P14209); test: flow cytometry, transfected 293 cells, 2nd Ab anti-His-PE; untransfected 293: 0.13
# human CD99 expressed on 293T cells (human), sequence (P14209 23-185): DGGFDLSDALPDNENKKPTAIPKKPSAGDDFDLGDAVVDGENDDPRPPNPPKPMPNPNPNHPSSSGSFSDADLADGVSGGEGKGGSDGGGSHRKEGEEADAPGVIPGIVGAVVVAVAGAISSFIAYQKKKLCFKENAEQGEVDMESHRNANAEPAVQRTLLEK
# [5] = target: human NPDC1 expressed on cells (human) (UniProt Q9NQX5); test: as above
# [6] = target: human COLEC12 expressed on cells (human) (UniProt Q5KU26); test: as above
# human COLEC12 expressed on cells (human), sequence (Q5KU26 whole entry S522P/G606S): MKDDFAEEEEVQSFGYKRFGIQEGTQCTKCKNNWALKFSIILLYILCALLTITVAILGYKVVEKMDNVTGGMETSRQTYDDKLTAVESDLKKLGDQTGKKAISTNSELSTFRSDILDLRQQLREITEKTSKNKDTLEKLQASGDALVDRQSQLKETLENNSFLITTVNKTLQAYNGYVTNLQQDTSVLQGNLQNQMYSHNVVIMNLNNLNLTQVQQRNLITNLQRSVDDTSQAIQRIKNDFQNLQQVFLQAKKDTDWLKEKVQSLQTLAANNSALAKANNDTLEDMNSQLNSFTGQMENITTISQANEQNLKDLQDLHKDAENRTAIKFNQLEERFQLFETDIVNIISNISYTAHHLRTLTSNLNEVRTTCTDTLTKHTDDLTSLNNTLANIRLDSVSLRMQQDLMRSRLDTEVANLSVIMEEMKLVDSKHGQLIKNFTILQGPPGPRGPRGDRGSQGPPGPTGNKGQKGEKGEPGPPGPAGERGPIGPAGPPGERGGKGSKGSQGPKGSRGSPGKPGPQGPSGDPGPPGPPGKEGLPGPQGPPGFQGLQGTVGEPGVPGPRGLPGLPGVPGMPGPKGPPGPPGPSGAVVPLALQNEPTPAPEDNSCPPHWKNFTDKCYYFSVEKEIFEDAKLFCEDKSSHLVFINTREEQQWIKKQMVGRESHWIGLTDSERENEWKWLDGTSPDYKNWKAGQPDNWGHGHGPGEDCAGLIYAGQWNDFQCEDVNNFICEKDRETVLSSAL
# [7] = target: human CD99 expressed on 293T cells (human) (UniProt P14209); test: flow cytometry, transfected 293 cells, 2nd Ab anti-goat-IgG-PE; untransfected 293: 0.098
# [8] = target: human NPDC1 expressed on cells (human) (UniProt Q9NQX5); test: as above
# [9] = target: human COLEC12 expressed on cells (human) (UniProt Q5KU26); test: as above
# [10] = target: human CD99 expressed on 293T cells (human) (UniProt P14209); test: flow cytometry, transfected 293 cells, 2nd Ab anti-His-PE; untransfected 293: 0.059
# [11] = target: human NPDC1 expressed on cells (human) (UniProt Q9NQX5); test: as above
# [12] = target: human COLEC12 expressed on cells (human) (UniProt Q5KU26); test: as above
# mPILRβ-his (R&D) (receptor), sequence (Q2YFS2 29-195): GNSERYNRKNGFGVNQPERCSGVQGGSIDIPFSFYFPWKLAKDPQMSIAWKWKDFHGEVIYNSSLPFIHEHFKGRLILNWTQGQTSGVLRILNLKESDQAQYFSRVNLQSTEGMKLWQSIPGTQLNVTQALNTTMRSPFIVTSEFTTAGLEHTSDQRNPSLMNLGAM
# human NPDC1 expressed on cells (human), sequence (Q9NQX5 35-325 H113Q limits assumed): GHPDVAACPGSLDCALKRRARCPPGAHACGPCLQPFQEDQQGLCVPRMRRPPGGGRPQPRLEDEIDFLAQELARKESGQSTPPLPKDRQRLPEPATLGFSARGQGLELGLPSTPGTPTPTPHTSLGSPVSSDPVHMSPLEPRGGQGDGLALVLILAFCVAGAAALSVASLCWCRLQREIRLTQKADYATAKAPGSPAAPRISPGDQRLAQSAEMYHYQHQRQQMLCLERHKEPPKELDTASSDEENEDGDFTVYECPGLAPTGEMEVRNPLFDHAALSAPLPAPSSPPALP
# mPILRα-his (R&D) (receptor), sequence (Q2YFS3 32-198): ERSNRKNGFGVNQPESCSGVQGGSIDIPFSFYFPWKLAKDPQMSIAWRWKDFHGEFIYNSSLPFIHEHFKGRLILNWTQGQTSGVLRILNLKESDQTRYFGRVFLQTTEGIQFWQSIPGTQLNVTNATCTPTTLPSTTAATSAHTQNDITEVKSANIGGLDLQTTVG
# FceRII expressed on cells (human), sequence (P06734 whole entry N269T): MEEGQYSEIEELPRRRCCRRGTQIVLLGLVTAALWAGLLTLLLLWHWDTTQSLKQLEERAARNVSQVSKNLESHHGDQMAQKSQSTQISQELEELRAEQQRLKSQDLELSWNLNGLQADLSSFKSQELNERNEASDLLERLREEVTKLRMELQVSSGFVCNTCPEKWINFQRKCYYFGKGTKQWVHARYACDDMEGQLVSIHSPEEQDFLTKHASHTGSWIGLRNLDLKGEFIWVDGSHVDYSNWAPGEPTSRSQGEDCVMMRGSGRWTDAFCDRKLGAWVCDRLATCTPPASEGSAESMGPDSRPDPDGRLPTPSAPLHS
substance,measurement,setting,value
hPILRα-Fc (from UniProt Q9UKJ1 20-197) (Fc fusion),% cells in lower right quadrant,[1],15.5%
same,% cells in lower right quadrant,[2],58.1%
mPILRα-Fc (from UniProt Q2YFS3 32-198) (Fc fusion),% cells in lower right quadrant,[1],30.3%
same,% cells in lower right quadrant,[2],47.8%
mPILRαR133A-Fc (from UniProt Q2YFS3 32-198) (Fc fusion),% cells in lower right quadrant,[2],0.014%
mIgG2a (Control) (antibody),% cells in lower right quadrant,[3],0.018%
mPILRα-his (R&D) (receptor),% cells in lower right quadrant,[4],0.24%
same,% cells in lower right quadrant,[5],23.6%
same,% cells in lower right quadrant,[6],12.3%
Goat IgG (Control) (antibody),% cells in lower right quadrant,[7],0.19%
same,% cells in lower right quadrant,[8],1.28%
same,% cells in lower right quadrant,[9],2.19%
mPILRβ-his (R&D) (receptor),% cells in lower right quadrant,[10],0.043%
same,% cells in lower right quadrant,[11],0.22%
same,% cells in lower right quadrant,[12],0.062%
hPILRαR126A-Fc (from UniProt Q9UKJ1 20-197) (Fc fusion),% cells in lower right quadrant,[1],0.028%
